In paper PMC8387964 (2021):

Columns and labels:
[1] = biological target: Rac1 (Homo sapiens, UniProt P63000)
[2] = biological target: Rac1 (Homo sapiens, UniProt P63000, Rac1 acetylated at K166)

Kd [1]: 2340 nM
Kd [2]: 109 nM
B1: p67phox (protein)
chain: MSLVEAISLWNEGVLAADKKDWKGALDAFSAVQDPHSRICFNIGCMYTILKNMTEAEKAFTRSINRDKHLAVAYFQRGMLYYQTEKYDLAIKDLKEALIQLRGNQLIDYKILGLQFKLFACEVLYNIAFMYAKKEEWKKAEEQLALATSMKSEPRHSKIDKAMECVWKQKLYEPVVIPVGKLFRPNERQVAQLAKKDYLGKATVVASVVDQDSFSGFAPLQPQAAEPPPRPKTPEIFRALEGEAHRVLFGFVPETKEELQVMPGNIVFVLKKGNDNWATVMFNGQKGLVPCNYLEPVELRIHPQQQPQEESSPQSDIPAPPSSKAPGRPQLSPGQKQKEEPKEVKLSVPMPYTLKVHYKYTVVMKTQPGLPYSQVRDMVSKKLELRLEHTKLSYRPRDSNELVPLSEDSMKDAWGQVKNYCLTLWCENTVGDQGFPDEPKESEKADANNQTTEPQLKKGSQVEALFSYEATQPEDLEFQEGDIILVLSKVNEEWLEGECKGKVGIFPKVFVEDCATTDLESTRREV
